Assay results published in patent US20120220489A1.
Blank lines part the entries; values can stand above or below the substance they belong to.

What was measured:
[1] = molecular target: Histone H3-BSA 2.7x peptide-protein conjugate (bovine); assay: RPA, competition: +free H3 peptide 10 nM
[2] = molecular target: pRb recombinant protein, human, Active Motif 31 128 (human) (UniProt P06400); assay: RPA, competition: +free H3 peptide 10 nM
[3] = molecular target: pErk1/2-BSA 2.7x peptide-protein conjugate (human; bovine); assay: RPA, competition: +free H3 peptide 10 nM
[4] = molecular target: Histone H3 recombinant protein, human, Upstate 14-494 (human) (UniProt P68431); assay: RPA, competition: +free H3 peptide 10 nM
[5] = molecular target: Erk1-BSA 2.7x peptide-protein conjugate (human; bovine); assay: RPA, competition: +free H3 peptide 10 nM
[6] = molecular target: Histone H3 recombinant protein, calf, Roche 11 034 758 001 (calf) (UniProt P68432); assay: RPA, competition: +free H3 peptide 10 nM
[7] = molecular target: pRb-BSA 1x peptide-protein conjugate (bovine); assay: RPA, competition: +free H3 peptide 10 nM
[8] = molecular target: ERK1 (p44), human, Cell Signaling Technology 7416 (human) (UniProt P27361); assay: RPA, competition: +free H3 peptide 10 nM
[9] = molecular target: ERK1 (p42) active (phospho), human, Active Motif 31 152 (human) (UniProt P27361); assay: RPA, competition: +free H3 peptide 10 nM
[10] = molecular target: Histone H3-BSA 2.7x peptide-protein conjugate (bovine); assay: RPA, competition: +free H3 peptide 1000 nM
[11] = molecular target: pRb recombinant protein, human, Active Motif 31 128 (human) (UniProt P06400); assay: RPA, competition: +free H3 peptide 1000 nM
[12] = molecular target: pErk1/2-BSA 2.7x peptide-protein conjugate (human; bovine); assay: RPA, competition: +free H3 peptide 1000 nM
[13] = molecular target: ERK1 (p44) inactive (GST tagged), human, Invitrogen PV 3312 (human) (UniProt P27361); assay: RPA, competition: +free H3 peptide 1000 nM
[14] = molecular target: Histone H3 recombinant protein, human, Upstate 14-494 (human) (UniProt P68431); assay: RPA, competition: +free H3 peptide 1000 nM
[15] = molecular target: Erk1-BSA 2.7x peptide-protein conjugate (human; bovine); assay: RPA, competition: +free H3 peptide 1000 nM
[16] = molecular target: Histone H3 recombinant protein, calf, Roche 11 034 758 001 (calf) (UniProt P68432); assay: RPA, competition: +free H3 peptide 1000 nM
[17] = molecular target: pRb-BSA 1x peptide-protein conjugate (bovine); assay: RPA, competition: +free H3 peptide 1000 nM
[18] = molecular target: ERK1 (p44), human, Cell Signaling Technology 7416 (human) (UniProt P27361); assay: RPA, competition: +free H3 peptide 1000 nM
[19] = molecular target: ERK2 (p42), human, Biosource PHO 0104 (human) (UniProt P28482); assay: RPA, competition: +free H3 peptide 1000 nM
[20] = molecular target: ERK1 (p44) active (GST tagged), human, Invitrogen PV 3311 (human) (UniProt P27361); assay: RPA, competition: +free H3 peptide 1000 nM
[21] = molecular target: ERK1 (p42) active (phospho), human, Active Motif 31 152 (human) (UniProt P27361); assay: RPA, competition: +free H3 peptide 1000 nM
[22] = molecular target: ERK1 (p44) inactive (GST tagged), human, Invitrogen PV 3312 (human) (UniProt P27361); assay: RPA standard curves
[23] = molecular target: ERK1 (p44), human, Cell Signaling Technology 7416 (human) (UniProt P27361); assay: RPA standard curves
[24] = molecular target: ERK1 (p44) active (GST tagged), human, Invitrogen PV 3311 (human) (UniProt P27361); assay: RPA standard curves
[25] = molecular target: ERK1 (p42) active (phospho), human, Active Motif 31 152 (human) (UniProt P27361); assay: RPA standard curves
[26] = molecular target: Histone H3-BSA 2.7x peptide-protein conjugate (bovine); assay: RPA, competition: +free pErk1/2 peptide 10 nM
[27] = molecular target: pRb recombinant protein, human, Active Motif 31 128 (human) (UniProt P06400); assay: RPA, competition: +free pErk1/2 peptide 10 nM
[28] = molecular target: pErk1/2-BSA 2.7x peptide-protein conjugate (human; bovine); assay: RPA, competition: +free pErk1/2 peptide 10 nM
[29] = molecular target: ERK1 (p44) inactive (GST tagged), human, Invitrogen PV 3312 (human) (UniProt P27361); assay: RPA, competition: +free pErk1/2 peptide 10 nM
[30] = molecular target: Histone H3 recombinant protein, human, Upstate 14-494 (human) (UniProt P68431); assay: RPA, competition: +free pErk1/2 peptide 10 nM
[31] = molecular target: Erk1-BSA 2.7x peptide-protein conjugate (human; bovine); assay: RPA, competition: +free pErk1/2 peptide 10 nM
[32] = molecular target: Histone H3 recombinant protein, calf, Roche 11 034 758 001 (calf) (UniProt P68432); assay: RPA, competition: +free pErk1/2 peptide 10 nM
[33] = molecular target: pRb-BSA 1x peptide-protein conjugate (bovine); assay: RPA, competition: +free pErk1/2 peptide 10 nM
[34] = molecular target: ERK1 (p44), human, Cell Signaling Technology 7416 (human) (UniProt P27361); assay: RPA, competition: +free pErk1/2 peptide 10 nM
[35] = molecular target: ERK2 (p42), human, Biosource PHO 0104 (human) (UniProt P28482); assay: RPA, competition: +free pErk1/2 peptide 10 nM
[36] = molecular target: ERK1 (p44) active (GST tagged), human, Invitrogen PV 3311 (human) (UniProt P27361); assay: RPA, competition: +free pErk1/2 peptide 10 nM
[37] = molecular target: ERK1 (p42) active (phospho), human, Active Motif 31 152 (human) (UniProt P27361); assay: RPA, competition: +free pErk1/2 peptide 10 nM

UniProt P06400, sequence (P06400 whole entry): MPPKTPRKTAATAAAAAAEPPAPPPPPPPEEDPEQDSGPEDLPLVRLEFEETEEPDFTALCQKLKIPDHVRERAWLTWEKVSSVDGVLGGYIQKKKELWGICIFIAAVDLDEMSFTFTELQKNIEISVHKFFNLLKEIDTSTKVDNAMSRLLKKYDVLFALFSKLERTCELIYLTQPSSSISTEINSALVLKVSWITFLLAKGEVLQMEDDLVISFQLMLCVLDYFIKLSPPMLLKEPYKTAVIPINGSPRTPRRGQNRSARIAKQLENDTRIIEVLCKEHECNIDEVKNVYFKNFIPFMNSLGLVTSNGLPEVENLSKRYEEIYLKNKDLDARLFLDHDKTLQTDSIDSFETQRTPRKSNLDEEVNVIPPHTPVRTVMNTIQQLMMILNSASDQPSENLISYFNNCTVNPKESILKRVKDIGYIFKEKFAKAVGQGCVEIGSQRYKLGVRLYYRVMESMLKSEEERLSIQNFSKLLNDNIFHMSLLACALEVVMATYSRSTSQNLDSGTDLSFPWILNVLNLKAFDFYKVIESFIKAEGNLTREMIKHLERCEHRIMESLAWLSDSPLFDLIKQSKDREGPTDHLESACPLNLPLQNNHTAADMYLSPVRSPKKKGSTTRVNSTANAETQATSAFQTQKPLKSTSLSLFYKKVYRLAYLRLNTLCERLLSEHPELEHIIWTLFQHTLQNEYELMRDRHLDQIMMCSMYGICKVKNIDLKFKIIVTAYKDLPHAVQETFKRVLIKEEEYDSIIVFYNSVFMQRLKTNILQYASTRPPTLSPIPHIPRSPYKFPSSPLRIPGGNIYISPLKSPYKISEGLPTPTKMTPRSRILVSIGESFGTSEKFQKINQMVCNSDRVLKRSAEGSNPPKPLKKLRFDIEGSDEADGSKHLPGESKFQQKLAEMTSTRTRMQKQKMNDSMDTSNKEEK
Histone H3-BSA 2.7x peptide-protein conjugate (bovine), sequence (P02769 25-607 limits assumed): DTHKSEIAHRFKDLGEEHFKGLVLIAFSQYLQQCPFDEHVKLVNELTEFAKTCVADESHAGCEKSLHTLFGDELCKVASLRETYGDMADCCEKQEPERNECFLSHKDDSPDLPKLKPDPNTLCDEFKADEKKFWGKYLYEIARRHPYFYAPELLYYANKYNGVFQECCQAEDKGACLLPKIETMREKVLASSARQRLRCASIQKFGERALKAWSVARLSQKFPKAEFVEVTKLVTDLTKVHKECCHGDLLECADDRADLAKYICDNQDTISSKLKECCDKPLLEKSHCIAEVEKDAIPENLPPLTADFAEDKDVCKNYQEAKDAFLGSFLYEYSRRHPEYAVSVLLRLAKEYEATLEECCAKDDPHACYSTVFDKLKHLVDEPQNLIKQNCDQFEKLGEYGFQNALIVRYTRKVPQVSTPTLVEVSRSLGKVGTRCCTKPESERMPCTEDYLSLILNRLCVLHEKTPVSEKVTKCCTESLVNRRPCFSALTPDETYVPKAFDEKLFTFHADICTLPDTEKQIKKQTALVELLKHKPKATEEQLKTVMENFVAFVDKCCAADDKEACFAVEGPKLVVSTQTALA
pRb-BSA 1x peptide-protein conjugate (bovine), sequence (P02769 25-607 limits assumed): as above
pErk1/2-BSA 2.7x peptide-protein conjugate (human; bovine), sequence (P02769 25-607 limits assumed): as above
Erk1-BSA 2.7x peptide-protein conjugate (human; bovine), sequence (peptide, as listed by the source limits assumed, chain 1 of 2): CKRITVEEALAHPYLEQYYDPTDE
Erk1-BSA 2.7x peptide-protein conjugate (human; bovine), sequence (P02769 25-607 limits assumed, chain 2 of 2): as the sequence (P02769 25-607 limits assumed) above
UniProt P28482, sequence (P28482 2-360 limits assumed): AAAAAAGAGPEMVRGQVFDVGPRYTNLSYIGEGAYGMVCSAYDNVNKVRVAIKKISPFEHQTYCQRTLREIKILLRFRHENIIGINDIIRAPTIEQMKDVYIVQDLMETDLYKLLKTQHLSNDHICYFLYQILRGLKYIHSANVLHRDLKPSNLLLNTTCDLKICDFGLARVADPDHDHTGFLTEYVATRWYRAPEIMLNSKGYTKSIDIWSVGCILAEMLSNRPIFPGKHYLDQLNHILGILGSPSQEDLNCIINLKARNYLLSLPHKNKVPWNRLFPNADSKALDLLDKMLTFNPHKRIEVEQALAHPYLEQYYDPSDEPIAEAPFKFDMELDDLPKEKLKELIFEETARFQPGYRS

maximum standard curve signal [1]: 4.28 RFI | maximum standard curve signal [2]: < 0.01 RFI | maximum standard curve signal [3]: < 0.01 RFI | maximum standard curve signal [4]: 7.04 RFI | maximum standard curve signal [5]: < 0.01 RFI | maximum standard curve signal [6]: 0.3 RFI | maximum standard curve signal [7]: < 0.01 RFI | maximum standard curve signal [8]: < 0.01 RFI | maximum standard curve signal [9]: < 0.01 RFI | maximum standard curve signal [10]: 1.41 RFI | maximum standard curve signal [11]: < 0.01 RFI | maximum standard curve signal [12]: < 0.01 RFI | maximum standard curve signal [13]: 0.01 RFI | maximum standard curve signal [14]: 1.13 RFI | maximum standard curve signal [15]: < 0.01 RFI | maximum standard curve signal [16]: 0.04 RFI | maximum standard curve signal [17]: < 0.01 RFI | maximum standard curve signal [18]: < 0.01 RFI | maximum standard curve signal [19]: < 0.01 RFI | maximum standard curve signal [20]: < 0.01 RFI | maximum standard curve signal [21]: < 0.01 RFI
Substance: Histone H3 antibody, Abcam ab1791

signal relative to pErk1 protein (Invitrogen) [22]: 3% | signal relative to pErk1 protein (Invitrogen) [23]: 11% | signal intensity relative to the pErk1/2-BSA peptide standard [24]: 25% | signal relative to pErk1 protein (Invitrogen) [25]: 12% | maximum standard curve signal [26]: 0.1 RFI | maximum standard curve signal [27]: 0.01 RFI | maximum standard curve signal [28]: 1.05 RFI | maximum standard curve signal [29]: 0.01 RFI | maximum standard curve signal [30]: 0.01 RFI | maximum standard curve signal [31]: 0.01 RFI | maximum standard curve signal [32]: 0.01 RFI | maximum standard curve signal [33]: 0.01 RFI | maximum standard curve signal [34]: 0.01 RFI | maximum standard curve signal [35]: 0.01 RFI | maximum standard curve signal [36]: 0.05 RFI | maximum standard curve signal [37]: 0.01 RFI
Substance: p44/42 MAPK phospho (pERK1/2) Thr202/Tyr204 antibody, Cell Signaling Technology #9101
